# Data: patent US20200040103A1
# Molecular target: recombinant human KLK5 (human) (UniProt Q9Y337)
# Experiment: cell-based or functional assay
# Chain of recombinant human KLK5 (human) (Q9Y337 67-293): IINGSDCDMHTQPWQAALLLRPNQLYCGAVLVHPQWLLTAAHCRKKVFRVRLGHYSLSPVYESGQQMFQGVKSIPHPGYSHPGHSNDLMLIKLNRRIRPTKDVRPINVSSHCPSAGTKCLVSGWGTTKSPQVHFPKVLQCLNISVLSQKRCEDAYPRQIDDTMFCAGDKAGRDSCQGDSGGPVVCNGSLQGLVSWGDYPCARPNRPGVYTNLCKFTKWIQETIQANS
substance,measurement,value
Spink5.Fc (Fc fusion),"IC50, KLK5-induced IL-8 secretion by A549 cells",21 nM
